The values below come from patent US7244836 (Genentech, dated 2007).

Assay [1] concerns the target T1, GST-TRAF2 fusion protein (murine, UniProt P39429 1-501).
T1 construct: Expressed in E. coli in the presence of 1 mM ZnCl2; also called GST-TRAF2 fusion protein beads; not shown: glutathione S-transferase as encoded by vector pGEX-2TK, with the vector's linker
T1 sequence: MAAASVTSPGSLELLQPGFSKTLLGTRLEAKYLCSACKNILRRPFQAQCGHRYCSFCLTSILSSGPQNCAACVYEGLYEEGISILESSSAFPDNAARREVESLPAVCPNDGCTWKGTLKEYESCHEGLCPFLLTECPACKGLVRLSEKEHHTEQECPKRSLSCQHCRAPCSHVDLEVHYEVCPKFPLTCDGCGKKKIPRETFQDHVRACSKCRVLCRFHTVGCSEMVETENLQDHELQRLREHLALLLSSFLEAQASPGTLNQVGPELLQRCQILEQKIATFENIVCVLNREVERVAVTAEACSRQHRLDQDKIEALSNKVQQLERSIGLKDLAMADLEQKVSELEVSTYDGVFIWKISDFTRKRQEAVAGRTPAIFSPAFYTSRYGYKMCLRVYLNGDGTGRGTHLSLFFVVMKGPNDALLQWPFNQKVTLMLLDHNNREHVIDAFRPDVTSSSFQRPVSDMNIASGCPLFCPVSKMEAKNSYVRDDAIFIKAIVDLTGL
Kind of assay: GST-TRAF2 beads incubated with 293/TNF-R2 cell lysate; SDS-PAGE and Western blot with anti-hTNF-R2 antibody. The procedure:
FIG. 16. […] Reactions were analyzed by SDS-PAGE and Western blot analysis using anti-human TNF-R1 monoclonal antibody 986 (0.5 μg/ml) and anti-human TNF-R2 monoclonal antibody 1036 (0.5 μg/ml). An arrow indicates the 75-80 kd hTNF-R2 band that is coprecipitated specifically with the GST-TRAF2 fusion protein. Molecular weight markers are indicated on the right in kd.
An expression vector encoding a GST-TRAF2 fusion protein was constructed. The TRAF2 coding region was amplified from pPC86TRAF2 by PCR with Pfu DNA polymerase as described above using the oligonucleotide primers 5'-[…] TTGT-3' (SEQ. ID. NO: 53) and 5'-[…]-3' (SEQ. ID. NO: 54). The amplified 1.6 kb DNA fragment was blunt-ended using *E. coli* DNA polymerase I, digested with BamHI and cloned into BamHI/SmaI-digested pGEX-2TK vector. The GST-TRAF2 fusion protein was expressed in the presence of 1 mM ZnCL_2 and purified as described above. […] Primary antibodies directed against the extracellular domains of hTNF-R2 and hTNF-R1 (as a control) were used at a concentration of 0.5 µg/ml and the secondary sheep anti-mouse horseradish peroxidase conjugate (Amersham) at a dilution of 1:6000.
For orientation: In western blotting, separated proteins are transferred to a membrane and probed.

In assay [2] the target is T2, GAL4(TA)-TRAF1 co-expressed with directly expressed TRAF2 (yeast; murine, UniProt P39428 2-409; P39429 1-501, limits assumed).
T2 construct: also called GAL4(TA)-TRAF1 + TRAF2; pPC86TRAF1 with pPCTRAF2
T2 sequence 1: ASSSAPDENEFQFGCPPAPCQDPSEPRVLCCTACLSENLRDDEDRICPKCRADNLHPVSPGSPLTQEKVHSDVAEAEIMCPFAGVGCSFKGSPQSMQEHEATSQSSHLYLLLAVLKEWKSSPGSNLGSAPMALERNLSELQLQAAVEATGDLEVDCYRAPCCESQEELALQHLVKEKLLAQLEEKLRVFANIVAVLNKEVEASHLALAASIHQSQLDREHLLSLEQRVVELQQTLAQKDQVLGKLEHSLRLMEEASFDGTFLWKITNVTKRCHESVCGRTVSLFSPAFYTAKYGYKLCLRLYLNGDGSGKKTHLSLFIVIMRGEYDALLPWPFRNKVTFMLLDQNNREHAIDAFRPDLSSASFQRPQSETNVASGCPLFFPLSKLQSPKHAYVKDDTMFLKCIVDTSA
T2 sequence 2: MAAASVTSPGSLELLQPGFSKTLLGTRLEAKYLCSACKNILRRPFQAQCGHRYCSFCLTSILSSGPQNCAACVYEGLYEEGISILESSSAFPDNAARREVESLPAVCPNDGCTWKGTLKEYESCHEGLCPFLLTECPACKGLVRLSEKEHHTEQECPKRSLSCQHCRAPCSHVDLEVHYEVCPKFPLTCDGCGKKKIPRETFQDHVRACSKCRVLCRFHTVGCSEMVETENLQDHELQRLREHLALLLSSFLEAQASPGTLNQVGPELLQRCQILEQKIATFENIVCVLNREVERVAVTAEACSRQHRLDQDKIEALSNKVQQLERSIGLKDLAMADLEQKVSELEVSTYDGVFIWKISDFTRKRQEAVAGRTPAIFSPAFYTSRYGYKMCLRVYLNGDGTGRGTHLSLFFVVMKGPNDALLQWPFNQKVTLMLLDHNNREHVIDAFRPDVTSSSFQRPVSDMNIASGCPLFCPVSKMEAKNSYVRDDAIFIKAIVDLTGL
Kind of assay: yeast three-component assay with TRAF2 (no NLS) expressed directly; growth on trp- leu- his- medium with 20 mM 3-aminotriazole. The procedure:
HF7c cells were sequentially transformed with plasmids (see text) encoding the indicated GAL4 DNA-binding domain (DB) fusion proteins, the GAL4 transcriptional activation domain (TA) TRAF1 fusion protein, and TRAF2 or TRAF2 fused to the simian virus 40 large tumor antigen nuclear localization signal (NLS). The final transformation mixtures were plated onto synthetic dextrose plates lacking trp, leu, his and containing 20 mM 3-aminotriazole. Plus signs indicate growth of transformed yeast colonies on the respective plates. *See Table 2.

In assay [3] the target is T3, TNF Receptor Associated Factor 1, purified from CT6 cells (murine, UniProt P39428 1-409, N-terminally blocked (so in the source); nature of the block not stated)).
T3 construct: also called TRAF1; protein band at 45-50 kd
T3 sequence: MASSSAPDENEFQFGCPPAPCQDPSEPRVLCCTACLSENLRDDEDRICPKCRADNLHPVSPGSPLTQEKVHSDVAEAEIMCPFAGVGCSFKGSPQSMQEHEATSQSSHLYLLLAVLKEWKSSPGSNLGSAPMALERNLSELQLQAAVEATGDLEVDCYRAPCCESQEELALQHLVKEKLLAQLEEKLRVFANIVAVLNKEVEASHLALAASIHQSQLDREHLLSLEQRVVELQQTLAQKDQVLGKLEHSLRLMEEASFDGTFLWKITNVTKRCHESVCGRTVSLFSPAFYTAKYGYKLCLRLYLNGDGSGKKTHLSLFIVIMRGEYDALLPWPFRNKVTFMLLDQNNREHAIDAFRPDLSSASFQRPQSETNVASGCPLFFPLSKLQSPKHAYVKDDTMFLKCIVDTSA
Kind of assay: band eluted specifically from the GST-hTNF-R2icd affinity column and identified by peptide sequencing; association may be indirect (through TRAF2). The method, then: For large scale purification of hTNF-R2icd associated factors 60 l of CT6 cells (3×10^10 cells) were harvested and washed twice with cold PBS. All subsequent operations were carried out at 4° C. The cells were lysed by adding 120 ml of 0.1% NP40 lysis buffer containing 100 mM NaCl and rocked gently for 30 min. Insoluble material was removed by centrifugation for 10 min at 10,000×g. The supernatant was then centrifuged at 100,000×g for 1 hr and dialyzed against lysis buffer containing 500 mM NaCl. All subsequent purification steps were carried out in lysis buffer containing 500 mM NaCl. The cell lysate was passed through a 15 ml glutathione-agarose GST-hTNF-R2icd(-37) fusion protein preabsorption column. The flow-through was applied to a 0.3 ml Affigel10/15 GST-hTNF-R2icd fusion protein affinity column. For control, the lysate was run through a similar Affigel10/15 GST-hTNF-R2icd(-37) fusion protein affinity column in parallel. After extensive washing, proteins bound to the resins were eluted with five column volumes of ImmunoPure Gentle Ag1Ab Elution Buffer (Pierce) containing, 0.1 M DTT, precipitated with Methanol/Chloroform and resuspended in SDS sample buffer containing 5% SDS. One tenth of the material was separated by SDS-PAGE under reducing conditions and visualized by silver staining (FIG. 9).

B1: human type 2 TNF receptor, wild type full length (receptor, UniProt P20333 23-461, looked up)
chain: LPAQVAFTPYAPEPGSTCRLREYYDQTAQMCCSKCSPGQHAKVFCTKTSDTVCDSCEDSTYTQLWNWVPECLSCGSRCSSDQVETQACTREQNRICTCRPGWYCALSKQEGCRLCAPLRKCRPGFGVARPGTETSDVVCKPCAPGTFSNTTSSTDICRPHQICNVVAIPGNASMDAVCTSTSPTRSMAPGAVHLPQPVSTRSQHTQPTPEPSTAPSTSFLLPMGPSPPAEGSTGDFALPVGLIVGVTALGLLIIGVVNCVIMTQVKKKPLCLQREAKVPHLPADKARGTQGPEQQHLLITAPSSSSSSLESSASALDRRAPTRNQPQAPGVEASGAGEARASTGSSDSSPGGHGTQVNVTCIVNVCSSSDHSSQCSSQASSTMGDTDSSPSESPKDEQVPFSKEECAFRSQLETPETLLGSTEEKPLPLGVPDAGMKPS
notes: whole, on cells; Whole receptor made by transfected cells, assayed after detergent lysis, not on intact cells; also called hTNF-R2; 75-80 kd hTNF-R2
For B1, in assay [1], the binding result is reported as “binds”.

B2: GAL4 DNA-binding domain fused to the intracellular domain of the murine TNF-R2 (other, yeast;murine, UniProt P04386 1-147, looked up)
chain: MKLLSSIEQACDICRLKKLKCSKEKPKCAKCLKNNWECRYSPKTKRSPLTRAHLTEVESRLERLEQLFLLIFPREDLDMILKMDSLQDIKALLTGLFVQDNVNKDAVTDRLASVETDMPLTLRQHRISATSSSEESSNKGQRQLTVSKKKPSCLQRDAKVPHVPDEKSQDAVGLEQQHLLTTAPSSSSSSLESSASAGDRRAPPGGHPQARVMAEAQGFQEARASSRISDSSHGSHGTHVNVTCIVNVCSSSDHSSQCSSQASATVGDPDAKPSASPKDEQVPFSQEECPSQSPCETTETLQSHEKPLPLGVPDMGMKPSQAGWFDQIAVKVA
notes: also called GAL4(DB)-mTNF-R2icd; pPC97-mTNF-R2icd
Regarding B2, in assay [2], the binding result was “binds”.

B3: GAL4 DNA-binding domain fused to the intracellular domain of human TNF-R2 (other, yeast;human, UniProt P04386 1-147, looked up)
chain: MKLLSSIEQACDICRLKKLKCSKEKPKCAKCLKNNWECRYSPKTKRSPLTRAHLTEVESRLERLEQLFLLIFPREDLDMILKMDSLQDIKALLTGLFVQDNVNKDAVTDRLASVETDMPLTLRQHRISATSSSEESSNKGQRQLTVSKKKPLCLQREAKVPHLPADKARGTQGPEQQHLLITAPSSSSSSLESSASALDRRAPTRNQPQAPGVEASGAGEARASTGSSDSSPGGHGTQVNVTCIVNVCSSSDHSSQCSSQASSTMGDTDSSPSESPKDEQVPFSKEECAFRSQLETPETLLGSTEEKPLPLGVPDAGMKPS
notes: also called GAL4(DB)-hTNF-R2icd; pPC97-hTNF-R2icd
For B3, the binding result in assay [2] is “binds”.

B4: GST-hTNF-R2icd fusion protein (other, human, UniProt P20333 288-461, looked up)
chain: KKKPLCLQREAKVPHLPADKARGTQGPEQQHLLITAPSSSSSSLESSASALDRRAPTRNQPQAPGVEASGAGEARASTGSSDSSPGGHGTQVNVTCIVNVCSSSDHSSQCSSQASSTMGDTDSSPSESPKDEQVPFSKEECAFRSQLETPETLLGSTEEKPLPLGVPDAGMKPS
notes: domain: intracellular domain; Expressed in E. coli; also called pGST-hTNF-R2icd; wild type (wt) GST-hTNF-R2icd; not shown: glutathione S-transferase as encoded by vector pGEX-2TK (Pharmacia), with the vector's linker up to the BamHI site
With B4, the binding result in assay [3] was “binds”.
